# Values quoted from earlier work in paper PMC11827629.
# Tested on: thrombin (as in cited literature)
# Test: cited
# Conditions: smFRET: 1x PBS with 2.5 mM PCA, 0.155 U/ul PCD, 1 mM Trolox, 5 nM Cy3-aptamer, 23 +/- 1 C, pH not stated; QCM: PBS, flow 45 +/- 3 ul/min, thrombin 0.06-16.5 nM
row,Substance,Kd
1,HD1 (cited),7.1 nM
2,RE31 (cited),1.4 nM
3,NU172 (cited),3.2 nM
